These results are taken from paper PMC2199947.

The target of the experiment is receptor-type protein tyrosine phosphatase PTPmu (endogenous, MvLu mink lung cells) (mink (endogenous in MvLu)). The experiment can be described thus: co-IP.

Turning to “130-kD cadherin of MvLu cells (natural protein)”, the percent of the cadherin cleared from the lysate by immunoprecipitation of PTPmu amounted to 80%.

With “116-kD cadherin of MvLu cells (natural protein)”, the percent of the cadherin cleared from the lysate by immunoprecipitation of PTPmu was found to be 80%.
